Data: article PMC6468676, “The Protein Tyrosine Phosphatase H1 PTPH1 Supports Proliferation of Keratinocytes and is a Target of the Human Papillomavirus Type 8 E6 Oncogene” (Cells, 2019)

Target: T1, FLAG-tagged HPV8E6 (E6 oncoprotein of human papillomavirus type 8), wild type (human papillomavirus type 8, UniProt P06428 1-155)
T1 sequence: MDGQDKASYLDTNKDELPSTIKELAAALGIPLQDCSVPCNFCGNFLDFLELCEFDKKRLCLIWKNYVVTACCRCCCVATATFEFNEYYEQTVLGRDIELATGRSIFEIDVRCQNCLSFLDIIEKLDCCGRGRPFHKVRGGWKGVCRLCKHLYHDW
Assay: cell-based or functional assay

B1: Myc-tagged protein tyrosine phosphatase H1 (PTPH1), full length (enzyme, UniProt P26045 1-913, looked up)
chain: MTSRLRALGGRINNIRTSELPKEKTRSEVICSIHFLDGVVQTFKVTKQDTGQVLLDMVHNHLGVTEKEYFGLQHDDDSVDSPRWLEASKAIRKQLKGGFPCTLHFRVRFFIPDPNTLQQEQTRHLYFLQLKMDICEGRLTCPLNSAVVLASYAVQSHFGDYNSSIHHPGYLSDSHFIPDQNEDFLTKVESLHEQHSGLKQSEAESCYINIARTLDFYGVELHSGRDLHNLDLMIGIASAGVAVYRKYICTSFYPWVNILKISFKRKKFFIHQRQKQAESREHIVAFNMLNYRSCKNLWKSCVEHHTFFQAKKLLPQEKNVLSQYWTMGSRNTKKSVNNQYCKKVIGGMVWNPAMRRSLSVEHLETKSLPSRSPPITPNWRSPRLRHEIRKPRHSSADNLANEMTYITETEDVFYTYKGSLAPQDSDSEVSQNRSPHQESLSENNPAQSYLTQKSSSSVSPSSNAPGSCSPDGVDQQLLDDFHRVTKGGSTEDASQYYCDKNDNGDSYLVLIRITPDEDGKFGFNLKGGVDQKMPLVVSRINPESPADTCIPKLNEGDQIVLINGRDISEHTHDQVVMFIKASRESHSRELALVIRRRAVRSFADFKSEDELNQLFPEAIFPMCPEGGDTLEGSMAQLKKGLESGTVLIQFEQLYRKKPGLAITFAKLPQNLDKNRYKDVLPYDTTRVLLQGNEDYINASYVNMEIPAANLVNKYIATQGPLPHTCAQFWQVVWDQKLSLIVMLTTLTERGRTKCHQYWPDPPDVMNHGGFHIQCQSEDCTIAYVSREMLVTNTQTGEEHTVTHLQYVAWPDHGVPDDSSDFLEFVNYVRSLRVDSEPVLVHCSAGIGRTGVLVTMETAMCLTERNLPIYPLDIVRKMRDQRAMMVQTSSQYKFVCEAILRVYEEGLVQMLDPS
B1 was tested, and the “Myc-PTPH1 phosphatase activity (Malachite Green PTP assay on precipitated Myc-PTPH1, two phospho-tyrosine peptides) upon co-expression of HPV8E6 compared to the empty FLAG control vector” value was 2.5 fold.
